For assay [1], the target named is T1, human recombinant receptor VEGFR-1, seven extracellular domains fused to the Fc domain of human IgG (R&D Systems, cat No 321-FL) (human), P17948.
T1 chain: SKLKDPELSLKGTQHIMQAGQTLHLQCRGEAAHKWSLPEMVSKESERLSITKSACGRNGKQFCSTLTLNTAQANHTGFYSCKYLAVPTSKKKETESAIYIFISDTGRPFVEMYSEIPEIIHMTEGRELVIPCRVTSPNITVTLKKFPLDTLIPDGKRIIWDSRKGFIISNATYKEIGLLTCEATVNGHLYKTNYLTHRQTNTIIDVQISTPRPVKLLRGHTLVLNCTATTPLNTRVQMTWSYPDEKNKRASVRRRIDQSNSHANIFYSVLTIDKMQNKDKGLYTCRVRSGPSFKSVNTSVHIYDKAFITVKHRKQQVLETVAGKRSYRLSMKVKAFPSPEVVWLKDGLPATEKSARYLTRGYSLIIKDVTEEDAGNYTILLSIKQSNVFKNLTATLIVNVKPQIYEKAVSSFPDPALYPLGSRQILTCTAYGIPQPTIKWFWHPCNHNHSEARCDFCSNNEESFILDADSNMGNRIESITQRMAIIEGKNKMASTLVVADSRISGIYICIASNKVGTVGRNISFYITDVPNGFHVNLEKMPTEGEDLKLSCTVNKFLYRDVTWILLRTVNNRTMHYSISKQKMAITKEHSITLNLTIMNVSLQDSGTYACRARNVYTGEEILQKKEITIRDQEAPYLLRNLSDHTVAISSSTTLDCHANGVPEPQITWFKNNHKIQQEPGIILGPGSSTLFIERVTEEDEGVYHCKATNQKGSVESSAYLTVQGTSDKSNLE
Put plainly: competition ELISA, residual binding of VEGF-A (5 ng/ml) to coated VEGFR-1-Fc, peptide 50000 nM.

The target of assay [2] is T1, human recombinant receptor VEGFR-1, …. Put plainly: competition ELISA, VEGF-A binding to coated VEGFR-1-Fc. On the technique in general: In an ELISA, binding on a coated surface is turned into a signal by an enzyme label.
The target is the same in assay [3]. Put plainly: competition ELISA, residual binding of VEGF-A (5 ng/ml) to coated VEGFR-1-Fc, peptide 25000 nM.
Assay [4] shares this target. Description: competition ELISA, residual binding of VEGF-A (5 ng/ml) to coated VEGFR-1-Fc, peptide 6250 nM.
Assay [5] has the same target. Put plainly: competition ELISA, residual binding of PlGF (5 ng/ml) to coated VEGFR-1-Fc, peptide 3125 nM.
Assay [6] has the same target. Put plainly: competition ELISA, residual binding of PlGF (5 ng/ml) to coated VEGFR-1-Fc, peptide 50000 nM.
Assay [7] has the same target. Description: competition ELISA, residual binding of PlGF (5 ng/ml) to coated VEGFR-1-Fc, peptide 12500 nM.
For assay [8] the target is unchanged. Description: competition ELISA, residual binding of PlGF (5 ng/ml) to coated VEGFR-1-Fc, peptide 25000 nM.
For assay [9] the target is unchanged. Description: competition ELISA, residual binding of VEGF-A (5 ng/ml) to coated VEGFR-1-Fc, peptide 12500 nM.
Assay [10] shares this target. Put plainly: competition ELISA, PlGF binding to coated VEGFR-1-Fc.
Assay [11] has the same target. Put plainly: competition ELISA, residual binding of PlGF (5 ng/ml) to coated VEGFR-1-Fc, peptide 6250 nM.
For assay [12] the target is unchanged. Put plainly: competition ELISA, residual binding of PlGF (5 ng/ml) to coated VEGFR-1-Fc, peptide 1560 nM.
Assay [13] shares this target. Description: competition ELISA, residual binding of PlGF (5 ng/ml) to coated VEGFR-1-Fc, peptide 780 nM.
Assay [14] shares this target. Put plainly: competition ELISA, residual binding of VEGF-A (5 ng/ml) to coated VEGFR-1-Fc, peptide 3125 nM.
For assay [15] the target is unchanged. Put plainly: competition ELISA, residual binding of VEGF-A (5 ng/ml) to coated VEGFR-1-Fc, peptide 780 nM.
The target is the same in assay [16]. Description: competition ELISA, residual binding of VEGF-A (5 ng/ml) to coated VEGFR-1-Fc, peptide 1560 nM.
The target in assay [17] is T2, human recombinant receptor VEGFR-1, seven extracellular domains fused to the Fc domain of human IgG (R&D … (human, UniProt P17948 27-758)).
T2 construct: Bought reagent; also called Flt-1; not shown: Fc domain of human IgG
Put plainly: competition ELISA, VEGF-A binding to coated VEGFR-1-Fc.

Assay [18] deals with T1, human recombinant receptor VEGFR-1, …. Put plainly: competition ELISA, PlGF or VEGF-A binding to coated VEGFR-1-Fc; reference iVR1.

Square brackets hold non-standard residues; d marks the D form. Ends that are not written are not given here. * marks the point of attachment. Met(O2) = CS(=O)(=O)CC[C@H](N)C(=O)O; Cha = N[C@@H](CC1CCCCC1)C(=O)O; Bn = c1ccc(C*)cc1

B1: iVR1, tetrameric peptide of formula (IIc) (peptide)
peptide: H-[dE]-Cys(Bn)-[Cha]
chain 1: Lys
chain 2: Lys-Gly-NH2
modifications: also: branched: four ECX arms on two Z1 Lys, both on Z2 Lys
As to B1, the binding % in assay [1] came out at 8.6%; in assay [3] it was 21.4%; in assay [4], 66%; in assay [5], 96.1%; in assay [6] it was 26.3%; in [7] it was 44.6%. For the same molecule, the binding % was determined as 36% in assay [8]; 37% in assay [9]; 68.5% in assay [11]; 101% in [12]; 99.4% in assay [13]; 93.9% in assay [14]. The binding % worked out at 98.4% in assay [15] and 96.2% in assay [16]. The IC50 in [2] and in assay [10] was 10 µM in each case.

B2: tetrameric peptide of formula (II) with Y2 = L-methionine sulfone (peptide)
peptide: [dE]-Cys(Bn)-[Cha]
chain 1: Lys
chain 2: Lys-[Met(O2)]
modifications: also: tetrameric: four tripeptide arms on two Z1 lysines, carried on Z2 lysine
notes: Variant of iVR1-Cys with another Y2; only Y2 is printed
On to B2, for which the IC50 (as a rule, the concentration needed to halve the response being measured) in assay [17] was found to be 4.62 µM.

B3: tetrameric peptide of formula (II) with Y2 = D-serine (peptide)
peptide: [dE]-Cys(Bn)-[Cha]
chain 1: Lys
chain 2: Lys-[dS]
modifications: also: tetrameric: four tripeptide arms on two Z1 lysines, carried on Z2 lysine
notes: as for B2
For the molecule B3, the IC50 in [17] is 2.43 µM.

B4: tetrameric peptide of formula (II) with Y2 = L-cysteine (peptide)
peptide: [dE]-Cys(Bn)-[Cha]
chain 1: Lys
chain 2: Lys-Cys
modifications: also: tetrameric: four tripeptide arms on two Z1 lysines, carried on Z2 lysine
notes: Variant of iVR1-Cys with another Y2
With B4, in assay [17], the IC50 came to 2.03 µM.

B5: iVR1-Cys, tetrameric peptide of formula (IIb) (peptide)
peptide: H-[dE]-Cys(Bn)-[Cha]
chain 1: Lys
chain 2: Lys-[dC]-NH2
modifications: also: branched: four ECX arms on two Z1 Lys, both on Z2 Lys
In the case of B5, the binding % in [1] turned out to be 6.5%; in assay [3], 7.99%; in [4], 12.5%; in assay [5], 25.5%; in [6], 9.18%; in assay [7], 12.6%. The binding % stood at 10.3% in [8]; 9.81% in assay [9]; 14.1% in [11]; 35.5% in assay [12]; 83.8% in [13]; 21.7% in assay [14]. Moreover, the binding % in assay [15] amounted to 92.3%; in assay [16], 43.7%. The IC50 is 1 µM in [2] and less than 1 µM in assay [10]. In [18], the fold inhibitory capacity against iVR1 is 10 fold.

The record behind these values is US20220054583A1 (ANBITION S R L, published 2022).
